The values that follow come from patent publication US20030171289A1 (INSTITUT PASTEUR, published 2003).

One may read the IC50 as the midpoint of a concentration-inhibition curve. Read a high IC50 as weaker potency.

Experiment [1] has as its target T1, KDR (kinase domain receptor, VEGFR-2) expressed on cells (UniProt P35968 20-1356, limits assumed).
T1 construct: whole, on cells; The same molecule is used for KDR on CHO-KDR cells and for VEGF-R2 on HUV-EC cells; the cells are named under assay; also called KDR/Flk-1; VR2
Kind of experiment: phage ELISA on fixed CHO-KDR cells. Background: An ELISA detects its analyte on a solid surface through an enzyme-linked reagent.
Description: (§1) Exponentially growing CHO-KDR cells were seeded in 96-well microtiter plates at 7×10⁴ cells/well and left overnight at 37 C. Cells were fixed with paraformaldehyde (4% in PBS) for 15 min at room temperature and washed with PBS. Wells were then filled with PBS-Glycine 0.2%, kept for 15 min at room temperature and then washed with PBS. Phage particles (10¹² or 10¹³/ml) were added to each well and incubated 2 h at room temperature. Wells were washed with PBS and the amount of bound phage was detected with peroxidase-conjugated anti-M13 phage serum (Pharmacia Biotech, Uppsala, Sweden).

In experiment [2] the target is T1, KDR (kinase domain receptor, VEGFR-2) …. Put plainly: phage ELISA on CHO-KDR cells, 10^13 pfu/ml.
Description: Results are representative of three independent assays.
as §1
Experiment [3] has the same target. Put plainly: competition with 125I-VEGF for binding to CHO-KDR cells, fixed peptide concentration.
Description: (§2) Competition assay of binding to CHO-KDR cells. CHO-KDR cells were seeded in 24-well plates at a density of 5×10⁵ cells/well. After 24 h, subconfluent plates were transferred at 4 C, and all subsequent operations were done at 4 C. […] After 3 h, cells were washed five times with binding buffer and solubilized by the addition of 0.5 M NaOH.
For experiment [4] the target is unchanged. Put plainly: displacement of 125I-VEGF165 from CHO-KDR cells.
For experiment [5] the target is unchanged. Put plainly: displacement of 125I-VEGF165 from CHO-KDR cells. This is another data set of the same source. Background: Displacement assays read how much labelled ligand stays bound in the presence of the test substance.
For experiment [6] the target is unchanged. Kind of experiment: displacement of 125I-VEGF165 from CHO-KDR cells, curve fitting (CI50).
Experiment [7] has the same target. Kind of experiment: competition with 125I-VEGF for binding to CHO-KDR cells.
Description: as §2
Another experiment addresses T2, neuropilin 1 (UniProt O14786 22-923, limits assumed).
T2 construct: whole, on cells; also called NP 1; NP1
Put plainly: displacement of 125I-VEGF165 from MDA-MB 231 cells (neuropilin 1, no VEGF-R2).

T1 sequence (P35968 20-1356 limits assumed): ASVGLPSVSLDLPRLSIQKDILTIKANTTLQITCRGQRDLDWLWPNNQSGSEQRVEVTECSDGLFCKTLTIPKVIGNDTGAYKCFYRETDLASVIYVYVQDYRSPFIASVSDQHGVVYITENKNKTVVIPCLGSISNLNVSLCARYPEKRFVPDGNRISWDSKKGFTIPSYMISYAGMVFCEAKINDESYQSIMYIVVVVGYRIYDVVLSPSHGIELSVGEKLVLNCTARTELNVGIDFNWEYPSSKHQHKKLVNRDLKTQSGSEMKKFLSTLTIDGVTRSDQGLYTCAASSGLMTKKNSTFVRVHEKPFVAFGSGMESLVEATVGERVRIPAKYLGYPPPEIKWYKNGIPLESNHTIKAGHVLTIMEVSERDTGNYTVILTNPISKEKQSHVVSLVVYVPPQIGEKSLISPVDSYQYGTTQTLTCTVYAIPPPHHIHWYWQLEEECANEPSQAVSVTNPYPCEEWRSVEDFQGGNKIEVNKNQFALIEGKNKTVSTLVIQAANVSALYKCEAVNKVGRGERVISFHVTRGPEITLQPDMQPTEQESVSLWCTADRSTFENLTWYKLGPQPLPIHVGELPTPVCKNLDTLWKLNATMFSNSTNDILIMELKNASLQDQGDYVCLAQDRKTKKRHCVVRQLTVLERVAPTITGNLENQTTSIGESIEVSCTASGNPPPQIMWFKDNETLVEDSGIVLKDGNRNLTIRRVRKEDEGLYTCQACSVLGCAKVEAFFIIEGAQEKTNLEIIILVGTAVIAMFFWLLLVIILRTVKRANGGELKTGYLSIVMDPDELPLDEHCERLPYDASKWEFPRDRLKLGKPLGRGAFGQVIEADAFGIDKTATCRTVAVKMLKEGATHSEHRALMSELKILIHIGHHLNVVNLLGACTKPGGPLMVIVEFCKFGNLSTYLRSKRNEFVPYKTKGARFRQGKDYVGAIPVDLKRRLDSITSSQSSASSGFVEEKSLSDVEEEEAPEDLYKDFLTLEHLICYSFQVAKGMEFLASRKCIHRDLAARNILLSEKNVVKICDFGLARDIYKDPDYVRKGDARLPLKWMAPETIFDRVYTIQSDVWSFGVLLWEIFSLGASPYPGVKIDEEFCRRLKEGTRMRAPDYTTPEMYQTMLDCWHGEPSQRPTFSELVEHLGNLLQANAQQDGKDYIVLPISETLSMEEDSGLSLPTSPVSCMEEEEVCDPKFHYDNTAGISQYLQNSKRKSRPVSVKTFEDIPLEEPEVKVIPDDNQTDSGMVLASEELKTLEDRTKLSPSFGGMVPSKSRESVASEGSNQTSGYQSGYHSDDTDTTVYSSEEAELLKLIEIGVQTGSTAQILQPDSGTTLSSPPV
T2 sequence (O14786 22-923 limits assumed): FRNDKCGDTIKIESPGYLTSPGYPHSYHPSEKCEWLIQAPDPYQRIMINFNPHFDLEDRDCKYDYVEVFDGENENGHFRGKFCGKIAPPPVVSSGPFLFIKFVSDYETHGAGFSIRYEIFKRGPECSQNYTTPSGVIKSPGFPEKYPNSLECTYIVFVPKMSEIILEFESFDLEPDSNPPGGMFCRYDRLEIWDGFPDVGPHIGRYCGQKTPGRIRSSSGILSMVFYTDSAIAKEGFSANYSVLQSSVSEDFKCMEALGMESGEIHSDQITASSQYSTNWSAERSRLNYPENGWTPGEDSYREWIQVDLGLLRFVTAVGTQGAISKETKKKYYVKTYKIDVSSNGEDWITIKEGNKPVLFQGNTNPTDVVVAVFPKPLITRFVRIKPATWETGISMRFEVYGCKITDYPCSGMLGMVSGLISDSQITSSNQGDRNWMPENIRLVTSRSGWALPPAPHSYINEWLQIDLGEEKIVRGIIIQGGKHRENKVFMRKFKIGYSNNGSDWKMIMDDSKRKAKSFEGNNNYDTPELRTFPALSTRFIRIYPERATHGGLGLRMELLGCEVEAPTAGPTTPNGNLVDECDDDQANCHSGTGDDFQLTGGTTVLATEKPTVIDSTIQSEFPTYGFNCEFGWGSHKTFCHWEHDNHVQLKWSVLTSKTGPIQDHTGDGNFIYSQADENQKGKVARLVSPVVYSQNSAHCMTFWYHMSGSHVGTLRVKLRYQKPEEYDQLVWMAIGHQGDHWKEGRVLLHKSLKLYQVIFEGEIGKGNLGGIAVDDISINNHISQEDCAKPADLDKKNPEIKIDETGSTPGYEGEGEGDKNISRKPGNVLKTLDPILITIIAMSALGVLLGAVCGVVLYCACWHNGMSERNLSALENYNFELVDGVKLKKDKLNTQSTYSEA

B1: phage-displayed peptide V2 (M13 phage clone) (peptide)
chain: NPRALNY
notes: not shown: M13 phage coat protein of the Ph.D.-7 library
Regarding B1, the binding result in experiment [1] is on record as “binds”.

B2: phage-displayed peptide K2 (M13 phage clone) (peptide)
chain: WPTPPYA
notes: as for B1
With B2, the binding result in experiment [2] is on record as “binds”.

B3: phage-displayed peptide K5 (M13 phage clone) (peptide)
chain: HSSLQTP
notes: as for B1
As for B3, the binding result in experiment [2] was “binds”.

B4: phage-displayed peptide V4 (M13 phage clone) (peptide)
chain: YHSSFQA
notes: as for B1
Consider B4, for which the binding result in experiment [1] is given as “binds”.

B5: phage-displayed peptide K3 (M13 phage clone) (peptide)
chain: TPHNTVS
notes: as for B1
In the case of B5, the binding result in experiment [2] is on record as “binds”.

B6: phage-displayed peptide V3 (M13 phage clone) (peptide)
chain: ANLFKAK
notes: as for B1
Consider B6, for which the binding result in experiment [1] was “binds”.

B7: phage-displayed peptide V6 (M13 phage clone) (peptide)
chain: LPPNPTK
notes: as for B1
For B7, the binding result in experiment [1] is recorded as “binds”.

B8: phage-displayed peptide K7 (M13 phage clone) (peptide)
chain: ALQPRYL
notes: as for B1
Consider B8, for which the binding result in experiment [2] was “binds”.

For the molecule SLPAHAR (Synthetic peptide (Neosystem)) [synthetic peptide K4 (SLPAHAR)], in experiment [3], the binding result is given as “binds”.

Consider AAAAAAR (position 1 is already alanine) [V1 analogue A11 (the 6 amino acids upstream to arginine substituted by alanine)], for which the “factor by which the inhibitory efficiency is lowered against V1” value in experiment [4] was 10 fold.

Turning to AAWLPPR (Ala scan analogue of ATWLPPR (V1)) [V1 analogue A2], the “Efficiency (% Emax)” value in experiment [5] was determined as 61 % Emax. Besides, the IC50 in experiment [6] came out at 30.9 µM.

On to ATWLAPR (Ala scan analogue of ATWLPPR (V1)) [V1 analogue A5], for which the “Efficiency (% Emax)” value in experiment [5] turned out to be 65 % Emax. The same molecule returned an IC50 in experiment [6] of 29.1 µM.

As to ATWLPAR (Ala scan analogue of ATWLPPR (V1)) [V1 analogue A6], the “Efficiency (% Emax)” value in experiment [5] stood at 84 % Emax. The IC50 in experiment [6] was 22.4 µM.

Regarding ATALPPR (Ala scan analogue of ATWLPPR (V1)) [V1 analogue A3], the “Efficiency (% Emax)” value in experiment [5] came to 70 % Emax. Also, in experiment [6], the IC50 was found to be 26.8 µM.

On to ATWAPPR (Ala scan analogue of ATWLPPR (V1)) [V1 analogue A4], for which the “Efficiency (% Emax)” value in experiment [5] stood at 31 % Emax. Besides, the IC50 in experiment [6] amounted to 60.7 µM.

B9: phage-displayed peptide K6 (M13 phage clone) (peptide)
chain: YSIPKSS
notes: as for B1
With B9, the binding result in experiment [2] was “binds”.

B10: phage-displayed peptide K1 (M13 phage clone) (peptide)
chain: YLTMPTP
notes: as for B1
On to B10, for which the binding result in experiment [2] is “binds”.

B11: phage-displayed peptide V5 (M13 phage clone) (peptide)
chain: ILDNYKL
notes: as for B1
Turning to B11, the binding result in experiment [1] is on record as “binds”.

B12: phage-displayed peptide K4 (M13 phage clone) (peptide)
chain: SLPAHAR
notes: as for B1
As to B12, the binding result in experiment [2] is reported as “binds”.

B13: phage-displayed peptide V7 (M13 phage clone) (peptide)
chain: YAIMPLV
notes: as for B1
For the molecule B13, the binding result in experiment [1] is recorded as “binds”.

B14: synthetic peptide V1 (ATWLPPR) (peptide)
peptide: ATWLPPR
notes: Synthetic peptide (Neosystem); also called V1 peptide
Consider B14, for which the IC50 in experiment [7] was roughly 80 µM; in experiment [6] it was 18.8 µM; in the experiment with neuropilin 1 it was 38 µg/mL. The “Efficiency (% Emax)” value in experiment [5] worked out at 100 % Emax.
